According to the DeepSol protein solubility set:

Assay: soluble on expression in E. coli; label from the status in PepcDB or PDB records
In the case of “MSVVSPDPAPVPHDPQRRALLRWLVGGGALAGGLGVSAVAQGYRFGVTHEQWNLVGLTRPVRLALLTDLHYGLYIGAGSVRRWVDATLAECPDLILLGGDLVDSHFDAAARPQQTAALLAELGRLRAPLGVYAVWGNHDYGSFGRSISQSPEASRADWAARRDALRAGLAGQGVTVLLNEGRSLRDDLWLGGVDDLRMGEADSVAALRGSGTRATVLLAHNPDVLLRLRSAPGLVLSGHTHGGQVRLPLLGALKVPADPRFTMGWVRGPQGIPAYVSRGLGMSGLPVRNLCEPEITLLTLLPPGALEHHHHHH”, the “soluble on expression in E. coli” value is reported as “not soluble”.
For “MGSDKIHHHHHHMDARSLISLIPSLSAYKWYGKVTRVIGLTIEAKGPQASIGELCYILVGKQGTKVMAEVVGFKEERVLLMPLNGTAEIAPGSLVEGTGRPLQVKVGYSLIGHVIDGCGRPLTGEALPNGLTPYPTDNPPPNPISRPRIKEAMHLGVRAIDGLLTVGKGQRVGIFAGSGVGKSTLLAMLAKNAAADLNIIALIGERGREVKDFIERDLGEDGLRRSIIVVATSDQPALMRIKGAMTATALAEYFRDQGLHVNLMMDSVTRFAMAQREIGLAVGEPPTTKGYTPSVFALLPKLLERAGTNGKGSITGFYTVLVDGDDLNEPISDTVRGILDGHFVLDRELANKGHYPAINILKSVSRVMNDIVTDEQKRAAEHVRSLLSVYKESEDLINIGAYKRGSSKQIDEAIERQPEVISFLRQNTDEVAIAEHSIQQLIQAFGKGD”, the “soluble on expression in E. coli” value was “not soluble”.
For “MNVIRTEIEDVLILEPRVFGDDRGFFYESFNQSAFEHILGYPVSFVQDNHSRSSKNVLRGLHFQRGEYAQDKLVRCTHGAVFDVAVDIRPNSVSFGKWVGVLLSADNKQQLWIPKGFAHGFLVLSDIAEFQYKTTNYYHPESDCGICWNDERIAIDWPQTSGLILSPKDERLFTLDELIRLKLIA”, the “soluble on expression in E. coli” value was “not soluble”.
For “MAHHHHHHMRLTPLRCSAAAFHFTSLLLQGSGGGYRFFEDMYPKHDPAPRYRYYEDQMQSPTVRSLEPKKQMTETEKLHHLHDWKKDKEGLTPPPEFGWPEEWGPEPGEEGHSEWYRKNRMYMSYEEKSRYDLRVGVPVEKNSMRHQEMPYQKRMKAAYVNLEEKNPQYFDPRQRKYWAEYSYEDQRDTMAKARDDYIKEWLDEPGVTKENVAKKIGDYNGTAKNQNVKSVQRRPEWELAPRPEYDDD”, the “soluble on expression in E. coli” value was “not soluble”.
In the case of “MKTNVIIDGDACPVVNSVIELTKGTGIFVTILRSFSHFSQQIQPEHVKIVYVDDGPDAVDYKIVELASNNDIVITQDYGLASLLIDKVHTVMHHKGNIYHSNNIQSLLDQRYLNAQIRRRGLEHHHHHH”, the “soluble on expression in E. coli” value is reported as “not soluble”.
With “MVMIMRICIQPVGDVNDEILKFLKKKFGEVFGMCEILPKIDIPIYAYNFSRGQFNSTLILKSLPTVEDIVLGVTEVDIYADNLNFVFGEAELFGKRALISLARLRPEFYGLPPNKDVLKIRALKEAIHEIGHVLGLIHCENKRCVMSFSNSIIDVDLKDWRYCKKCLKKLQDRGIYISILEHHHHHH” the “soluble on expression in E. coli” value was “not soluble”.
In the case of “MKFHVIDRENWNREQYFEHYLELKCTFSMTVNVDITLLIKKVHQKGIKFYPTFIYIISRIINKHKEFRTCFNDEGVLGYWEEMIPSYTIFHKDDKSFSSIWTDYSSDFRIFYKNYEEDMRCYASVHGLLTKENIPPNIFPISGIPWTSFTGFNLNINNDGDFLLPIITCGKYFNEENKIMLPVSLQVHHSVCDGYHVSRFIEDLQELSNSCNEWLK”, the “soluble on expression in E. coli” value is reported as “not soluble”.
With “MYFIGCGYNAFPVGSEYADFPHMDDKHKDREIRKFRYIIHAEQNALTFRCQDIKPEEHSMIFVTKCPCDECVPLIKGAGIKQIYAGDVDVGKKKADISYMKFGELEGVRKFTWQLNPSEAYSLDPNEPERREKHLSIKRSH” the “soluble on expression in E. coli” value was “not soluble”.
With “MSLAIGRILIIDDENINAETMMDTLEDVNYHVVLAANANQAKTIVEDQIFDLVMMDVWMPAQDGMSLLEEWTQSGFSTPIVMMSGHAEHQDVVKAIKLGAVDFLEKPLHDILPLVRKILSEQVLEKSEHTINGIEFNAPLKEARNIFEVQYFNHHLQENKHNIAKVAILAGLERTTLYRKLKDLGIDKEGHHHHHH” the “soluble on expression in E. coli” value was “soluble”.
For “SGDFTWSSNLVFSWNKNEIKDLYGDGQNDLGNRWFLGHPIGVIYDYTMVGIWQEDEIARGDHLNWDPIAEAGDVKLADISGPDGVPDGKIDDNDRTIKGQTTPKWIGGLTNTFTYKDFTLSIFIQTTQGLKKNNSLIGMAGDEMGRRNTTTEIGYWTPENKSNEWRSLRKNSNKHGYGFPCDASYTRIKDITLSYTFPQRMIQKMGIGGLQLYVSGRNLFTFTDWVGWDPEARQVARGNSSWDSTRGETVYDSSNYPMTKSCVFGVNLTF”, the “soluble on expression in E. coli” value was “not soluble”.
For “MFYFRNLDGYTFFSFMKQKPRRNLFIGVPPLEGTCTKEVVHEAIKEILFYSYC”, the “soluble on expression in E. coli” value was “not soluble”.
For “MGSDKIHHHHHHMFKNVSWKLKEHSELKKYGIDHNILLDVVSRERRKIYFDYWKNLPKLVTSSLGLKFTDGTPVDALYEVFIEGIYDVDGFRPKMGDVVVDVGANYGDSSIWWAKKKFGAKVIAFEPLADVFHELEKNIRINHADVIAYNVALGNGNFINGSKQGNMFVAGGQAKIQTSRLDDYTFDRLDLLKIDVEGFEHDVLLGARSTISKFKPKIIIETHSVALRKLCHEFLISLGYSLSLEGRTIRAHSPGMDKVTNLFYSPII”, the “soluble on expression in E. coli” value was “not soluble”.
For “MELLCPAGNLPALKAAIENGADAVYIGLKDDTNARHFAGLNFTEKKLQEAVSFVHQHRRKLHIAINTFAHPDGYARWQRAVDMAAQLGADALILADLAMLEYAAERYPHIERHVSVQASATNEEAINFYHRHFDVARVVLPRVLSIHQVKQLARVTPVPLEVFAFGSLCIMSEGRCYLSSYLTGESPNTIGACSPARFVRWQQTPQGLESRLNEVLIDRYQDGENAGYPTLCKGRYLVDGERYHALEEPTSLNTLELLPELMAANIASVKIEGRQRSPAYVSQVAKVWRQAIDRCKADPQNFVPQSAWMETLGSMSEGTQTTLGAYHRKWQ”, the “soluble on expression in E. coli” value was “soluble”.
With “MFEFEQLPNEMQLEVLKRTEFRTIQSMKTVSKRVQHFIQLYQRYMLPIPIRQMFVTPEKISFTLANSNEINTINHDDMDKYLRGAKVDLLWLEMNGSEDEPIEFLQKVIQKTNFTRIDCLKLGSSKVECDVTKLENCMASLVCAELIVDWRFRVPEDFFNELHVEKLTRLTIGNQESRNFYHPLSGDHFRKFRGDWLEIGQNRLRSSDISTFLKNWKLGSISWIEMYNIVISFPIPELLILLKNESCQKTPTTWKVSRDLDEGKEELEIGFFKSTNFSKQPSLVIRQLKILEYLW” the “soluble on expression in E. coli” value was “not soluble”.
For “MDDDFVRALNKFNSKFSFRNKKNSLNEVLQKNKRNDKKEDINCNKLKNDLELQYIHSSNNKICQKFLTLPLNKKSDKLKDHSDKIILPVSILKTLEKGNYKNEVEFPYTFSIKNVQNNYITHACVLEFSSNEGIIFVSDNIKENLGLNKPQNSSIARVLITYCILSKCDFIKLDSLNNNINDIKYMKNLLENELSLNYSTLTLGDYIHINHLNFYISELEPDNAVSLINTDINVDICERNNMEGYKNVNILGDHKDIYEIIKIDIPINSSIQKGMNKYKFVLNNNTLDLLKKGKIELAIHLQSQMMLHSLNLFISLPPLDSVSEVLHHLYIDDYSTDEIIINREVIRNILKLHFACMIKEQPYNKNNDNHHANDKEDNVHNGTCNDHHEDDKIEKQNYDDSFLEYIFEHFFPHIIYIGVHNYMDTLVDYSICLKLNGEKNMSTKKDDSNNKCVNTSGFIHNNINLLKNININTQDIDNNNNDDTYITCDNCLKNILKYNIHMHKIHCLKNFTLCNICKKVLKKNEKDNHIHCDICNEGMHKNKKKTHELIWHTQIKCVCDKLLFRKQFIFHQNLFCPKKIIYCTFCNIFTQSNINIYNEEFILATFFDKYDNIKTNNSTVNKSIKYYYNMLFTYFHFFLKYIKNTEHEKYCGSKSINCTICKQIIYRNEYLLHLNTLHHFNKIESFKIINDNADLSQLMN”, the “soluble on expression in E. coli” value was “not soluble”.
In the case of “GLDALFERAVESVAAGLNTEYSKVLEYRPADNKFLLRAGVGWQSGLVGEAAVGAGEESQAGYTLQTEEPVVVEDLRTESRFSGPSLLLDHGVVSGISVIIGTTTEPWGVLGAHTSERRPFTKDDITFVRGVANTLTNAIEREQLEGTLRQAEQRYKTLLENFP”, the “soluble on expression in E. coli” value is reported as “not soluble”.
For “MNKKQRDEISKLLSYVLRHAPESMGLTLDRDGWCEVDELVGKANANGHSFDRQALEEVVETNEKKRFTLSEDGQRIRAAQGHSTEQVQVQHIEKEPPAWLYHGTASRFMASIETQGLIAGSRHHVHLTEDPETALSVGKRYGQPVLLAVDAKGMFEAGVQFFQADNGVWLVEAVPIEWLTKVADTVSLEHHHHHH”, the “soluble on expression in E. coli” value was “soluble”.
In the case of “MGSDKIHHHHHHMKKSCKVSVHQLQIGNFVRLPVAWKDHPFLFSSFHIKQAAQIELIKNLGIAHVIVDLERSDVEPLSIDAVNPIKLPPAPEIHDLKNDMELYKAEQIEVQKKLRRDIHKTEQNFTRSVAMMRSMISKLRNRPLNAVDDAKDLVHSIVEQLLTSDNLVLHLMSDAKQDESIYYHSLNVAILSMLIAKEMEWSRSEIEAIGLSALFHDVGKLKIPPQILKKSTPWSAPELNFIKQHPLLGVELLKLAENFPPSALPAITNHHEFLDGTGYPKGLKEADLDQMSQLLAVVNEYDSLCYPNPQDKPMMPYAALGHLYKQYKTKLNQEYIGKIIKMLGIYPPGSVVELSSGQYAMVMSVNLQKLLCPKILVYDAQVPKDQAPIVDLELEGISIVRCLPPAALPEKVHEYLNPRERVSYYFGGDSRK”, the “soluble on expression in E. coli” value is reported as “not soluble”.
With “MYQTKITGNRLYHTVSKGYGDSVTLFGKTDQGETPMSLLVIALSSCVTMCVQGFYHRQFQQDTLAVSVEASYEEEVFELLVRIDDVLDDKKKADLLAYIGTYCRVKQLLKPEVTVTITLEGLSHV” the “soluble on expression in E. coli” value was “not soluble”.
For “MSLTSLVSAVGSHHVTTDPDVLAGRSVDHTGRYRGRASALVRPGSAEEVAEVLRVCRDAGAYVTVQGGRTSLVAGTVPEHDDVLLSTERLCVVSDVDTVERRIEIGAGVTLAAVQHAASTAGLVFGVDLSARDTATVGGMASTNAGGLRTVRYGNMGEQVVGLDVALPDGTVLRRHSRVRRDNTGYDLPALFVGAEGTLGVITALDLRLHPTPSHRVTAVCGFAELAALVDAGRMFRDVEGIAALELIDGRAAALTREHLGVRPPVEADWLLLVELAADHDQTDRLADLLGGARMCGEPAVGVDAAAQQRLWRTRESLAEVLGVYGPPLKFDVSLPLSAISGFARDAVALVHRHVPDSPEALPLLFGHIGEGNLHLNVLRCPPDREPALYAKMMGLIAECGGNVSSEHGVGSRKRAYLGMSRQANDVAAMRRVKAALDPTGYLNAAVLFDEGHHHHHH”, the “soluble on expression in E. coli” value was “not soluble”.
In the case of “RDHIILIGWNEKTNRLLKDLQLGAPSKTVVLIDESLTEGPLIENVHFIRGHAADDGTLKRANITEAESVMITADQYKSETDADMLSVLTLLSVKGLNPLAYCIVEILTDRFVTNAERAGANQIIGTSEFISRAMLQHYQVKLR”, the “soluble on expression in E. coli” value is reported as “not soluble”.
In the case of “MSLSNTELILIRVTGEDRPGLTASVTEILAKYDATILDIGQADIHNTLSLGILFRSEERHSGFIMKELLFKASSLGVTIRFEPIGTDQYENWVGMQGKNRYILTVLGRKLSARQISAATRVLAEQDLNIDAIKRLTGRIPLDEDKTDTRTRACIEFSVRGTPKDRIAMQERLMQLASEQEMDFSFQQDNMYRRMRRLICFDMDSTLIETEVIDELAIRAGVGDEVKAITESAMRGEIDFTESFTRRVALLKGLDESVMQEIAESLPITEGVDRLMYVLKKYGYKIAILSGGFTYFGQYLQKKYGIDYVYANELEIVDGKLTGRYLGDVVDGKRKAELLRLIAQVEKVDIAQTIAVGDGANDLPMLGIAGLGIAFHAKPKVVANAKQSINTIGLDGVLYFLGFKDSYLNEGHHHHHH”, the “soluble on expression in E. coli” value is reported as “soluble”.
With “GPGSMSTPNLDALLGVPLAAELVARAGGLLALCKLSDAALRMLGTEEFQSIASSSRARQLHAGLLLKAPLFTNAFGDEEEVDTTDRKAAQKGAAQLGRKCALVAKADLAGAFSDGSLGEAEKEKLNAAFTRLLAEGKVTAEDTQALAAPFVYVHGDAAKHRRGGVKERKKRESQQESISVVARATQRVRMGVSEEEQVQQLLQREDIRSEFAKERAQQLLKESRKRARESVHDEYDDLQNISL” the “soluble on expression in E. coli” value was “not soluble”.
